From the nanobody polyreactivity screen of Harvey et al. (2022)

assay: yeast display, Sf9 membrane polyspecificity reagent, FACS + sequencing; frameworks hold sequencing errors
Procedure, shortened: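 Using colony PCR, genes from sorted yeast display clones were amplified, then sequenced on MiSeq at 2 × 250 and filtered by CDR length. The clones had been stained with 10% biotinylated, detergent-solubilized Sf9 membrane reagent for 1 hour at 4 °C and sorted by FACS into low and high (top ~1%) gates on anti-HA and streptavidin fluorescence. Polyreactivity labels come from the gate of origin.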

Sequence | polyreactivity (PSR sort gate)
QVQLVESGGGLVQAGGSLRLSCAASGLIFRPYDMGWYRQAPGKERELVAAISNGDSTNYADSVKGRFTISRDNAKNTVYLQMNSLKPEDTAVYYCAAEDYYIYREPYDYWGQGTQVTVSS | low polyreactivity
QVQLVESGGGLVQAGGSLRLSCAASGLIFRPYTMGWYRQAPGKERELVAAISRSGGSTYYADSVKGRFTISRDNAKNTVYLQVNSLKPEDTAVYYCNAVPRRQGFNYWGQGTQVTVSS | high polyreactivity
QVQLVESGGGLVQAGGSLRLSCAASGLIFRSYAMGWYRQAPGKERELVARISIRGGSTYYADSVKGRFTISRDNAKNTVYLQLNSLKPEVTAVYYCAAVGYFGGYRYDYWGHGTQVTVSS | high polyreactivity
QVQLVESGGGLVQAGGSLRLSCAASGLIFRTNAMGGYRQAPGKERELVAAISWSTGTTYYADSVKGRFTISRDIAKNTVYFQMNSVNPEDTAVSYCARTLRWTYRYGYWGQGTQVTVSS | high polyreactivity
QVQLVESGGGLVQAGGSLRLSCAASGLIFRVNAMGWYRQAPGKERELVASISVSGGSTYYADSVKGRFTISRDNAKNTVYLQMNSLKPEDTAVYYCAASQYHKGYLFSYPYEYDYWGQGTQVTVSS | low polyreactivity
QVQLVESGGGLVQAGGSLRLSCAASGLIFRWYAMGWYRQAPGKERELVAAISRRGGTTNYADSVKGRFTISRDNAKNTVYLQMNSLKPEDTAVYYCAADYQSVGGAEYDYWGQGTQVTVSS | high polyreactivity
QVQLVESGGGLVQAGGSLRLSCAASGLIFRYKAMGWYRQAPGKERELVAAISRSRGTTYYADSVKGRFTISRDNAKNTVYLQMNSLKPEDTAVYYCATRISQSYYNYGYWGQGTQVTVSS | high polyreactivity
QVQLVESGGGLVQAGGSLRLSCAASGLIFRYYAMGWYRQAPGKERELVAAISKSGGRTYYADSVKGRFTISRDNAKNTVYLQMNSLKPEDTAVYYCATGVRGYVGWSSALYYEYDYWGQGTQVTVSS | high polyreactivity
QVQLVESGGGLVQAGGSLRLSCAASGLIFRYYAMGWYRQAPGKERELVATIRGGGSTYYADSVKGRFTISRDNAKNTVYLQMNSLKPEDTAVYYCAADPYSYGARGARGDYWGQGTQVTVSS | low polyreactivity
QVQLVESGGGLVQAGGSLRLSCAASGLIFRYYAMGWYRQAPGKERELVAVISRRGDSTYYADSVKGRFTISRDNAKNTVYLQMNSLKPEDTAVYYCAAQAFVSYFKFRGGYWGQGTQVTVSS | high polyreactivity
QVQLVESGGGLVQAGGSLRLSCAASGLIFSDNAMGWYRQAPGKEREFVASISDSGTTTYYADSVKGRFTISRDNAKNTVYLQMNSLKPEDTAVYDCNARPGQSGARFGYWGQGTQVTVSS | high polyreactivity
QVQLVESGGGLVQAGGSLRLSCAASGLIFSGYAMGWYRQAPGKDRELVAAITWSGGRTYADSVKGRFTISRDNAKNTVYLQMNSLKPEDTAVYYCNADAYIDYWPYTWDYDYWGQGTQVTVSS | high polyreactivity
QVQLVESGGGLVQAGGSLRLSCAASGLIFSPYAMGWYRQAPGKEREFVAAITSRGGTYYADSVKGRFTISRDNAKNTVYLQMNSLKPEDTAVYYCAAKSLYSKRQQYEYWGQGTQVTVSS | low polyreactivity
QVQLVESGGGLVQAGGSLRLSCAASGLIFSRYAMGWYRQAPGKERELVAVISWSGGRTYYADSVKGRFTISRDNAKNTVYLQMNSLKPEDTAVYYCAARSYGGQGVRMDYWGQGTQVTVSS | high polyreactivity
QVQLVESGGGLVQAGGSLRLSCAASGLIFSSNAMGWYRQAPGKERELVAAISRRGGNTYYADSVKGRFTISRDNAKNTVYLQMNSLKPEDTAVYYCAIRYVGRGTSYQDYYWGLGTQVTVSS | high polyreactivity
QVQLVESGGGLVQAGGSLRLSCAASGLIFSSYVMGWYRQAPGKERELVAAISSKGGSTYYADSVKGRFTISRDNAKNTVYLQMNSLKPEDTAVYYCAARVYYPVRYGYWGQGTQVTVSS | high polyreactivity
QVQLVESGGGLVQAGGSLRLSCAASGLIFSYNAMGWYRQAPGKERELVAAISYSGGSTYYADSVKGRFTNSRDNAKNTVYLQMNSLKPEDTAVYYCAAVWRRQGSAYVGSYGYDYWGQGTQVTVSS | high polyreactivity
QVQLVESGGGLVQAGGSLRLSCAASGLIFSYNAMGWYRQAPGKERELVATIRRVGSTNYADSVKGRFTISRDNAKNTVYLQMNSLKPEDTAVYYCAARSLRYGRGMYYWGQGTQVTVSS | high polyreactivity
QVQLVESGGGLVQAGGSLRLSCAASGLIFSYYAMGWYRQAPGKERELVAAIDWISGSTYYADSVKGRFTISRDNAKNTVYLQMNSLKPEDTAVYYCAAYGSFWYAGFGYWGQGTQVTVSS | low polyreactivity
QVQLVESGGGLVQAGGSLRLSCAASGLIFSYYAMGWYRQAPGKERELVAAITGSGGTTYYADSVMGRFTISRDNANNTVYLQMNSLKPEDTAVYYCATPPPEVWQRWYREYDYWGQGTQVTVSS | low polyreactivity

Sequence | polyreactivity (PSR sort gate)
QVQLVESGGGLVQAGGSLRLSCAASGLIFTNNAMGWYRQAPGKERELVAGINSGGRTNYADSVKGRFTISRDNAKNTVYLQKNSLKPEDTAVYYCAARWWVKSRPNRYNYWGQGTQVTVSS | high polyreactivity
QVQLVESGGGLVQAGGSLRLSCAASGLIFTPYAMGWYRQAPGKERELVAAISVSGGRTYYADSVKGRFTISRDNAKNTVYLQMNSLKPEDTAVYYCAASDRYGGRDYWGQGTQVTVSS | high polyreactivity
QVQLVESGGGLVQAGGSLRLSCAASGLIFTRNFMGWYRQAPGKERELVAAITSGGSTYYADSVKRRFTISRDNAKNTVYLQMNSLNPEDTADYYCAAGCDYLLSTVRFDYWGQGTQVTVSS | high polyreactivity
QVQLVESGGGLVQAGGSLRLSCAASGLIFTTNAMGSYRQAPGKEREFVAAISPSGGSTYYADSVKGRFTISRDNAKNTVYLQMNRLKPEDTAVYYCAARYSPVWHKYYYWGQGTQVTVSS | high polyreactivity
QVQLVESGGGLVQAGGSLRLSCAASGLIFTWYAMGWYRQAPGKERELVADISWSDDSTNYADSVKGRFTISRDNAKNTVYLQMNSLKPEDTAVYYCATQLDYGGRVGDADDYWGQGTQVTVSS | low polyreactivity
QVQLVESGGGLVQAGGSLRLSCAASGLIFTYYAMGWYRQAPGKERELVAAINYSGGSTYYADSVKGRFTISRDNAKNTVYLQMNSLKPEDTAVYYCAARRVTQTEGPMGYWGQGTQVTVSS | low polyreactivity
QVQLVESGGGLVQAGGSLRLSCAASGLIFTYYAMGWYRQAPGKERELVAAITSGGSTNYADSVKGRFTISRDNAKYTVYLQMNSLKPEDTAVYYCAADYDTGSERYEYWGQGSQVTVSS | low polyreactivity
QVQLVESGGGLVQAGGSLRLSCAASGLIFVAYAMGWYRQAPGKERELVAAISRSGGSTYYADSVKGRFTISRDNAKNTVYLQMNRLKPEDTAVYFCAKYYGARHVDDDYWGQGTQVTVSS | high polyreactivity
QVQLVESGGGLVQAGGSLRLSCAASGLIFVDNAMGWYRQAPGKERELVAAIDSGGSTNYADSVKGRFTISRDNAKNTVYLQMNSLKPEDTAVYYCAADWIYAPWYYQESVEYYYWGQGTQVTVSS | low polyreactivity
QVQLVESGGGLVQAGGSLRLSCAASGLIFVFNTLGWYRQAPGKEMELVAVITSGGSTNYADSVKGRFTISSDNEKNTVYLQMISLKPEDTAVYYCNVDRQVITGRYIGDYWGEGTQVTVSS | low polyreactivity
QVQLVESGGGLVQAGGSLRLSCAASGLIFVGYAMGWYRQAPGKERELVAAITSGGSTKYADSVKGRFTISRDNAKNTVYLQMNSLKAEDTAVYYCAASGWRNWWSARNYYWGQGTQVTVSS | low polyreactivity
QVQLVESGGGLVQAGGSLRLSCAASGLIFVGYAMGWYRQAPGKERELVAAITSGGSTKYADSVKGRFTISRDNAKNTVYLQMNSLKPEDTAVYYCAASGWRNWWSARNYYWGQGTLVTVSS | low polyreactivity
QVQLVESGGGLVQAGGSLRLSCAASGLIFVGYAMGWYRQSPGKERELVAAITSGGSTKYADSVKGRVTISRDNAKNTDYLQMNSLKPEDTAVYYCADSGCRNWWSARNYYWGQGTQVTVSS | low polyreactivity
QVQLVESGGGLVQAGGSLRLSCAASGLIFVHYAMGWYRQAPGKEREFVAAITWSGGSKYYADSVKGRFTISRDNAKNTVYLQMNSLKPEDTAVYYCAVDGFRPGTASFGYWGQGTQVTVSS | low polyreactivity
QVQLVESGGGLVQAGGSLRLSCAASGLIFVQYVMGWYRQAPGKERELVAAITEDGNTYYADSVKGRFTISRDNAKNTVYLQMNSLKPEDTAVYYCNAVLRSYDFWTGYGYWGQGTQVTVSS | low polyreactivity
QVQLVESGGGLVQAGGSLRLSCAASGLIFVTNAMGGYRQAPGKERELVAAITRSGGSTYYADSVKGRFTISRDNAKNTVYLQMNSLKQEDTAVYYCATGFHYAYGYWGQGTQVTVSS | low polyreactivity
QVQLVESGGGLVQAGGSLRLSCAASGLIFVWYAMGWYRQAPGKEREVVAAITSRGGSTYYADSVKGRFTISRDNAKNTVYLQMNSLKPEDTAVYYCAKYVRYDLGDYWGQGTQVTVSS | low polyreactivity
QVQLVESGGGLVQAGGSLRLSCAASGLIFVYNSMGWYRQAPGKERELVAGITSGGSTNYADSVKGRFTISRDNAKNTVYLQMNSLKPEDTAVYYCAAGYYDLYLWWGYDYWGQGTQVTVSS | high polyreactivity
QVQLVESGGGLVQAGGSLRLSCAASGLIFWKYAMGWYRQAPGKEREFVAAITYGGGGTYYADSVKGRFTISRDNAKNTVYFQMNSLKPEDTAVYYWAKRRYYYKGRVSYRQYGYWGQGTQVTVSS | high polyreactivity
QVQLVESGGGLVQAGGSLRLSCAASGLIFWYYAMGWYRQAPGKERELVAAINKIGGSTYYADSVKGRFTISRDNAKNTVYLQMNSLKPEDTAVYYCAADAPYYPVRRYYYWGQGTQVTVSS | low polyreactivity
